These results are taken from the supplement of paper PMC9112550, “Optimization of the antimicrobial peptide Bac7 by deep mutational scanning” (BMC Biology, 2022).
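Further: peptides expressed intracellularly from a pBAD plasmid library in pooled LB shake-flask culture, induced with 0.3% L-arabinose, DNA abundance read by NGS, three biological replicates, DESeq2 with apeglm shrinkage.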

This data set concerns Escherichia coli TOP10. Description: shrunken log2 fold change of peptide-encoding DNA abundance (4.5 h post-induction vs induction); higher = less antimicrobial activity (less host growth inhibition). Conditions: time post-induction: 4.5 h; library: site-saturation at positions 5, 18, 19, 20.
RRIRKRPPRLPRPRPRPPQLPRP: the “shrunken log2 fold change” value came out at 0.488.
For RRIRVRPPRLPRPRPRPDRFPRP the value was 0.0559; for RRIRVRPPRLPRPRPRPIQLPRP, -0.174; for RRIRIRPPRLPRPRPRPCLAPRP, -0.693.
With RRIRMRPPRLPRPRPRPMMEPRP, the “shrunken log2 fold change” value came to 0.00973.
Then RRIRWRPPRLPRPRPRPVRIPRP, with -0.0854.
For RRIRGRPPRLPRPRPRPMSMPRP the value was 0.257.
Then RRIRTRPPRLPRPRPRPNCLPRP, with -0.0709; and RRIRQRPPRLPRPRPRPVAEPRP, with 0.478; and RRIRTRPPRLPRPRPRPIKLPRP, with -0.412.
Turning to RRIRDRPPRLPRPRPRPLYPPRP, the “shrunken log2 fold change” value was -0.277.
Then RRIRCRPPRLPRPRPRPTPAPRP, with 0.933; and RRIRMRPPRLPRPRPRPDEYPRP, with 1.62.
For RRIRKRPPRLPRPRPRPQEWPRP the value was -0.0193; for RRIRPRPPRLPRPRPRPARMPRP, 0.487; for RRIRRRPPRLPRPRPRPICSPRP, 0.0991.
Then RRIRQRPPRLPRPRPRPTRHPRP, with 0.434.
For RRIRLRPPRLPRPRPRPQTPPRP, the “shrunken log2 fold change” value was 0.358.
RRIRIRPPRLPRPRPRPAWIPRP: the “shrunken log2 fold change” value was -0.187.
Then RRIRLRPPRLPRPRPRPDHIPRP, with -0.221.
Then RRIRTRPPRLPRPRPRPLFPPRP, with -0.415.
In the case of RRIRLRPPRLPRPRPRPGIYPRP, the “shrunken log2 fold change” value was -0.318.
For RRIRERPPRLPRPRPRPSSCPRP the value was -0.0232; for RRIRQRPPRLPRPRPRPEKLPRP, -0.12; for RRIRSRPPRLPRPRPRPEGEPRP, 0.809.
On to RRIRGRPPRLPRPRPRPQDTPRP, for which the “shrunken log2 fold change” value was determined as 0.0614.
Consider RRIRWRPPRLPRPRPRPPQAPRP, for which the “shrunken log2 fold change” value amounted to 0.733.
For the sequence RRIRVRPPRLPRPRPRPVERPRP, the “shrunken log2 fold change” value was 0.0358.
Then RRIRTRPPRLPRPRPRPQQTPRP, with 0.0814; and RRIRIRPPRLPRPRPRPLRAPRP, with 0.367.
For RRIRKRPPRLPRPRPRPTIFPRP the value was 0.2; for RRIRARPPRLPRPRPRPLRNPRP, 0.516.
In the case of RRIRWRPPRLPRPRPRPVWCPRP, the “shrunken log2 fold change” value worked out at 0.0155.
For RRIRSRPPRLPRPRPRPYGVPRP the value was 0.0325; for RRIRARPPRLPRPRPRPRQEPRP, 0.503.
Then RRIRHRPPRLPRPRPRPIDYPRP, with -0.017.
Then RRIRPRPPRLPRPRPRPYQIPRP, with -0.314; and RRIRNRPPRLPRPRPRPVLNPRP, with -0.261; and RRIRKRPPRLPRPRPRPRYHPRP, with -0.17.
On to RRIRARPPRLPRPRPRPFELPRP, for which the “shrunken log2 fold change” value was -0.146.
For RRIRTRPPRLPRPRPRPEYQPRP the value was 0.066.
For RRIRARPPRLPRPRPRPEDSPRP the value was 0.32; for RRIRRRPPRLPRPRPRPCRIPRP, -0.0873.
Regarding RRIRSRPPRLPRPRPRPEFNPRP, the “shrunken log2 fold change” value is 0.24.
For RRIRTRPPRLPRPRPRPEQSPRP the value was 0.0803.
On to RRIRWRPPRLPRPRPRPEFLPRP, for which the “shrunken log2 fold change” value is 0.374.
RRIRARPPRLPRPRPRPQIMPRP: the “shrunken log2 fold change” value came out at 0.0849.
Then RRIRCRPPRLPRPRPRPLRLPRP, with 0.0282; and RRIRHRPPRLPRPRPRPNLAPRP, with 0.0843; and RRIRIRPPRLPRPRPRPQMFPRP, with -0.65.
As to RRIRFRPPRLPRPRPRPTYSPRP, the “shrunken log2 fold change” value was -0.209.
RRIRRRPPRLPRPRPRPTSTPRP: the “shrunken log2 fold change” value was determined as 0.158.
With RRIRLRPPRLPRPRPRPETHPRP, the “shrunken log2 fold change” value amounted to 0.161.
Turning to RRIRVRPPRLPRPRPRPWRMPRP, the “shrunken log2 fold change” value is 0.077.
Take RRIRVRPPRLPRPRPRPQDRPRP: the “shrunken log2 fold change” value worked out at 0.0443.
Turning to RRIRARPPRLPRPRPRPFPQPRP, the “shrunken log2 fold change” value came to 0.512.
Turning to RRIRSRPPRLPRPRPRPCMKPRP, the “shrunken log2 fold change” value is -1.6.
Then RRIRKRPPRLPRPRPRPMVQPRP, with 0.208; and RRIRKRPPRLPRPRPRPNMKPRP, with 0.125; and RRIRMRPPRLPRPRPRPWFLPRP, with 0.0242.
Then RRIRRRPPRLPRPRPRPHIHPRP, with -0.674; and RRIRTRPPRLPRPRPRPMPEPRP, with 0.0253; and RRIRQRPPRLPRPRPRPSWDPRP, with -0.16.
For RRIRLRPPRLPRPRPRPWTHPRP the value was -0.207.
RRIRQRPPRLPRPRPRPLWAPRP: the “shrunken log2 fold change” value amounted to 0.00344.
Turning to RRIRRRPPRLPRPRPRPWVGPRP, the “shrunken log2 fold change” value was -0.00367.
With RRIRYRPPRLPRPRPRPNPIPRP, the “shrunken log2 fold change” value was -0.711.
Then RRIRHRPPRLPRPRPRPRQPPRP, with 0.474; and RRIRYRPPRLPRPRPRPDHMPRP, with -0.552.
In the case of RRIRYRPPRLPRPRPRPELMPRP, the “shrunken log2 fold change” value was -0.128.
Turning to RRIRPRPPRLPRPRPRPWPHPRP, the “shrunken log2 fold change” value worked out at 0.0318.
For the sequence RRIRFRPPRLPRPRPRPVNKPRP, the “shrunken log2 fold change” value is -0.492.
Consider RRIRERPPRLPRPRPRPLMPPRP, for which the “shrunken log2 fold change” value is -0.119.
For RRIRIRPPRLPRPRPRPRECPRP the value was 0.146; for RRIRMRPPRLPRPRPRPRWCPRP, 0.273; for RRIRQRPPRLPRPRPRPRQNPRP, 0.402.
As to RRIRRRPPRLPRPRPRPPCGPRP, the “shrunken log2 fold change” value was 0.324.
For RRIRKRPPRLPRPRPRPSYPPRP the value was -0.435; for RRIRYRPPRLPRPRPRPGTTPRP, -0.0671; for RRIRTRPPRLPRPRPRPGPIPRP, 0.316.
Regarding RRIRDRPPRLPRPRPRPTHAPRP, the “shrunken log2 fold change” value turned out to be 0.148.
Then RRIRRRPPRLPRPRPRPYEPPRP, with -0.846; and RRIRRRPPRLPRPRPRPSMRPRP, with 0.557.
Take RRIRSRPPRLPRPRPRPRDEPRP: the “shrunken log2 fold change” value was determined as 0.242.
On to RRIRNRPPRLPRPRPRPSGPPRP, for which the “shrunken log2 fold change” value is -0.0894.
Take RRIRNRPPRLPRPRPRPGMGPRP: the “shrunken log2 fold change” value turned out to be 0.307.
For the sequence RRIRQRPPRLPRPRPRPQVPPRP, the “shrunken log2 fold change” value was -0.148.
For RRIRQRPPRLPRPRPRPSVSPRP the value was -0.000735; for RRIRGRPPRLPRPRPRPIVLPRP, -0.0411; for RRIRNRPPRLPRPRPRPQNHPRP, -0.685.
Regarding RRIRTRPPRLPRPRPRPVPTPRP, the “shrunken log2 fold change” value was determined as 3.08.
Then RRIRKRPPRLPRPRPRPKIYPRP, with -0.0249; and RRIRPRPPRLPRPRPRPMPQPRP, with -0.0158; and RRIRNRPPRLPRPRPRPMNNPRP, with -0.749.
For RRIRGRPPRLPRPRPRPARMPRP the value was 0.613; for RRIRFRPPRLPRPRPRPMTDPRP, -0.269.
Turning to RRIRFRPPRLPRPRPRPGRFPRP, the “shrunken log2 fold change” value is -0.223.
Take RRIRQRPPRLPRPRPRPHAQPRP: the “shrunken log2 fold change” value is 0.384.
For RRIRHRPPRLPRPRPRPKQYPRP the value was -0.439; for RRIRWRPPRLPRPRPRPKIPPRP, 0.0948.
For RRIRPRPPRLPRPRPRPCAWPRP the value was 0.0868; for RRIRWRPPRLPRPRPRPFDKPRP, -0.012; for RRIRPRPPRLPRPRPRPCNQPRP, -0.0514.
For RRIRYRPPRLPRPRPRPWCHPRP the value was -0.191.
In the case of RRIRLRPPRLPRPRPRPWITPRP, the “shrunken log2 fold change” value is -0.028.
For RRIRERPPRLPRPRPRPKKPPRP, the “shrunken log2 fold change” value stood at 0.507.
Then RRIRVRPPRLPRPRPRPIQNPRP, with -0.121; and RRIRDRPPRLPRPRPRPKQPPRP, with -0.0112.
For RRIRCRPPRLPRPRPRPSFNPRP the value was -0.882.
For RRIRWRPPRLPRPRPRPCIDPRP the value was -0.0447; for RRIRGRPPRLPRPRPRPRCHPRP, 0.564.
As for RRIRQRPPRLPRPRPRPLCIPRP, the “shrunken log2 fold change” value was -0.28.
Then RRIRVRPPRLPRPRPRPSGIPRP, with -0.931.
Then RRIRDRPPRLPRPRPRPRLGPRP, with 0.829.
Take RRIRNRPPRLPRPRPRPHHCPRP: the “shrunken log2 fold change” value is -0.0844.
For RRIRCRPPRLPRPRPRPWTIPRP the value was -0.0777.
RRIRMRPPRLPRPRPRPRTDPRP: the “shrunken log2 fold change” value is -0.0668.
Consider RRIRSRPPRLPRPRPRPDYHPRP, for which the “shrunken log2 fold change” value is -0.271.
Regarding RRIRVRPPRLPRPRPRPALNPRP, the “shrunken log2 fold change” value is -0.142.
As for RRIRTRPPRLPRPRPRPKWQPRP, the “shrunken log2 fold change” value was found to be 0.0171.
RRIRNRPPRLPRPRPRPIGGPRP: the “shrunken log2 fold change” value is -0.00925.
For RRIRCRPPRLPRPRPRPYILPRP the value was -1.53.
With RRIRPRPPRLPRPRPRPIMEPRP, the “shrunken log2 fold change” value was -0.159.
For RRIRGRPPRLPRPRPRPLGVPRP the value was 0.835.
Then RRIRCRPPRLPRPRPRPAWWPRP, with 0.902.
